Bridge positions count the residues as written; N and C are the ends. Square brackets hold non-standard residues; d marks the D form. Side chains are listed from the residue outwards. * marks the point of attachment. Biotin = O=C1N[C@H]2[C@H](CS[C@H]2CCCCC(=O)*)N1; pGlu = O=C1CC[C@@H](C(=O)O)N1; Nle = CCCC[C@H](N)C(=O)O; AEEA = NCCOCCOCC(=O)O
T1: hCCR9 (human, UniProt P51686 1-369)
T1 sequence (looked up): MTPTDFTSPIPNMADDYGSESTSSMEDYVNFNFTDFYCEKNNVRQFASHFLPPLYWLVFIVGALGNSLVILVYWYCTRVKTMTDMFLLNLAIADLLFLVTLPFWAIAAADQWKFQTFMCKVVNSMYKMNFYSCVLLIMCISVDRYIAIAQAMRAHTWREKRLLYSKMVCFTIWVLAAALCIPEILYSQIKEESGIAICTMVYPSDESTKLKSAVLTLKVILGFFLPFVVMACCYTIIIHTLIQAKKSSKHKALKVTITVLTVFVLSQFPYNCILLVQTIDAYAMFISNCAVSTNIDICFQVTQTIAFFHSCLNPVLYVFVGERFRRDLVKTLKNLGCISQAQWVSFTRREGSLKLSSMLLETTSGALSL

B1: TECK-Biotin-Nle (truncated human TECK/CCL25, residues 1-74 of the mature protein, Met to Nleu substitution, derivatised at Lys72 with PEG-Biotin) (ligand)
chain: [pGlu]GVFEDCCLAYHYPIGWAVLRRAWTYRIQEVSGSCNLPAAIFYLPKRHRKVCGNPKSREVQRA[Nle]KLLDARNK([AEEA-Biotin])VF
modifications: disulfide 7-35, 8-52; also: TFA salt

Assays:
hCCR7 (human) = hCCR7 (human) (UniProt P32248); assay: cell-based or functional assay
Chain of hCCR7 (human) (P32248 25-378 limits assumed): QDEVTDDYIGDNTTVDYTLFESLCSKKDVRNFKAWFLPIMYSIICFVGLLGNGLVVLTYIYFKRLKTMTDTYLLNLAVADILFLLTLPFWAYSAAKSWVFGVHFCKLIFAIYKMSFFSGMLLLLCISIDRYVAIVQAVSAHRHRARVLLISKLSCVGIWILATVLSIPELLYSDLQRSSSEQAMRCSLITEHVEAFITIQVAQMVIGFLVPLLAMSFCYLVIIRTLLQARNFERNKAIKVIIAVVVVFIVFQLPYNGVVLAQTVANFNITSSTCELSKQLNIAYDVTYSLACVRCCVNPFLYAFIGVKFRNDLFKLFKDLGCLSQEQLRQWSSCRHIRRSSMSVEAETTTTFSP

hCCR9 = target: T1, hCCR9; assay: cell-based or functional assay

| EC50, agonist activity in an Aequorin assay (hCCR7 (human)) | EC50, agonist activity in an Aequorin assay (hCCR9) | Molecule |
| --- | --- | --- |
| 11 nM | – | biotinMIP-3β (human MIP-3β/CCL19 residues 1-77 with an additional Lys78 derivatised with Biotin) (from UniProt Q99731 22-98) (ligand) |
| – | 67.9 nM | native TECK (from UniProt O15444 24-150) (ligand) |
| 1.6 nM | – | recombinant native MIP-3β (from UniProt Q99731 22-98) (ligand) |
| – | 63.6 nM | B1 |

— patent EP3176583A2 (TLA Targeted Immunotherapies AB, dated 2017)
